The values below are quoted from earlier work in paper PMC2649756.

For the series, the target named is βI-spectrin 1898-2083 (Homo sapiens) (UniProt P11277). Particulars: cited from earlier work.
Chain of βI-spectrin 1898-2083 (Homo sapiens) (P11277 1898-2083): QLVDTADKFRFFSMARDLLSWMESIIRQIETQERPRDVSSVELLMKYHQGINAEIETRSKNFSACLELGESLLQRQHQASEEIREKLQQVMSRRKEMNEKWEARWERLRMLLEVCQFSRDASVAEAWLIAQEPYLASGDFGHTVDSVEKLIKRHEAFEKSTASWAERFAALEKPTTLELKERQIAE

Chain of αI-spectrin (P02549 whole entry): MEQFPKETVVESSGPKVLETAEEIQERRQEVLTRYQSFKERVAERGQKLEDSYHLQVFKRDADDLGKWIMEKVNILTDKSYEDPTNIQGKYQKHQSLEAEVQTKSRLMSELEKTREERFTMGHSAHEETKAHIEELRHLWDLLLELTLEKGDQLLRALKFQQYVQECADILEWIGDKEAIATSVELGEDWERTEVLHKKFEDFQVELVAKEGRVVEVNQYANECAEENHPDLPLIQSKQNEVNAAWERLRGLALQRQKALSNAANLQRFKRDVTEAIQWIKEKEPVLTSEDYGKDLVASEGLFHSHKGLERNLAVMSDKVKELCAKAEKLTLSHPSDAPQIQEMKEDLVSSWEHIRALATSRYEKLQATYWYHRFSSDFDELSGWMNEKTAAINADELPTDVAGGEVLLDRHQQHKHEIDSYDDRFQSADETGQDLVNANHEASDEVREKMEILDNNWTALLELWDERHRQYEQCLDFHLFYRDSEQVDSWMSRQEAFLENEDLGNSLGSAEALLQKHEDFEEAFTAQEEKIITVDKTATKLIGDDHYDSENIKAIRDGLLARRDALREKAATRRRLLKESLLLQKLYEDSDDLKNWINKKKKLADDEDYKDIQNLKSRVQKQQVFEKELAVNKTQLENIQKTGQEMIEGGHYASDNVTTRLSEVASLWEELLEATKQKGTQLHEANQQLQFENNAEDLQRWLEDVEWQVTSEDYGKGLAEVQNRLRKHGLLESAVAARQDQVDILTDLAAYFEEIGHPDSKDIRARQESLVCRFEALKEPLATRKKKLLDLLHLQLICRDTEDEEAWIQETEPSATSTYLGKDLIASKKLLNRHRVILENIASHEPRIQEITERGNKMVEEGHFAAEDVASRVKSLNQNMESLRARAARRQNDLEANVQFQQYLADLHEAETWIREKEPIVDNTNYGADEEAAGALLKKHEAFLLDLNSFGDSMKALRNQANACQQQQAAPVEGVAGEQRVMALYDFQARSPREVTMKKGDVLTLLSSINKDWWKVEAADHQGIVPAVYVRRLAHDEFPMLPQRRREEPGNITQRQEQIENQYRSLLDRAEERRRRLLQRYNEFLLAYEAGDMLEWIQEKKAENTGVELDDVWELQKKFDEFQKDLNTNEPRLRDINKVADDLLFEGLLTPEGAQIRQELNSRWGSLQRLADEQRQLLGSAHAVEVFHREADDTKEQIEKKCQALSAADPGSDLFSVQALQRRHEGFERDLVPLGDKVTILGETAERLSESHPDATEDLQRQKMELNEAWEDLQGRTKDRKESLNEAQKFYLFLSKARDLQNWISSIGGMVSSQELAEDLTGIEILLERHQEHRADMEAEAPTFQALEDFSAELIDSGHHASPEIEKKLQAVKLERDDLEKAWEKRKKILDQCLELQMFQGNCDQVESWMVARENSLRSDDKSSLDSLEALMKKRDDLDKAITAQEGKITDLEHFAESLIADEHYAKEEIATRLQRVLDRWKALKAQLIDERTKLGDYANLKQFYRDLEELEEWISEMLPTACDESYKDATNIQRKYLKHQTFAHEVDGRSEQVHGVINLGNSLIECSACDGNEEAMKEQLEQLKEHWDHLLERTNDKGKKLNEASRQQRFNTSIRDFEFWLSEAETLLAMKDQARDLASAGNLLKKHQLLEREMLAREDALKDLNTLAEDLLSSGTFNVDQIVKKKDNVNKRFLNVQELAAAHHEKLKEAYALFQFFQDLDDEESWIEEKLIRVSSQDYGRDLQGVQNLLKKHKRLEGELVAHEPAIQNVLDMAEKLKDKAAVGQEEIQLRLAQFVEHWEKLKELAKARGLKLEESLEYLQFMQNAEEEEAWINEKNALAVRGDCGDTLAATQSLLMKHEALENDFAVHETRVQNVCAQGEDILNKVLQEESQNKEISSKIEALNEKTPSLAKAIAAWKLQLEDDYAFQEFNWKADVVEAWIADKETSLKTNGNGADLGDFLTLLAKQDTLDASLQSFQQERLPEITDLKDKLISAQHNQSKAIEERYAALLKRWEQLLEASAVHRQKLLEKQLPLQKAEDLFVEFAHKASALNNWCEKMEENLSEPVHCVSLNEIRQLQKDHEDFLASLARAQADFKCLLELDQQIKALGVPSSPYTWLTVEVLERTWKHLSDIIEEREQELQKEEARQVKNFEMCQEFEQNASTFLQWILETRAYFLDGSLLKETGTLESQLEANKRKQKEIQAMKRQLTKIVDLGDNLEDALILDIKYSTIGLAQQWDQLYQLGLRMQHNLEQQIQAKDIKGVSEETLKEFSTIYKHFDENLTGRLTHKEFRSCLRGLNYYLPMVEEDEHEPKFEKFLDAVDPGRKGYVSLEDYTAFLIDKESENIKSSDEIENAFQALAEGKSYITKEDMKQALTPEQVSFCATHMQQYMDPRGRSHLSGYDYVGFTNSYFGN

Consider αI-spectrin (from UniProt P02549), for which the Kd is 1000 nM.

The term Kd denotes the constant that tells how readily two partners part at equilibrium.
